B1: LysP53: lysin from the genome of bacteriophage P53, amino acid sequence SEQ ID NO: 2, includes P104, about 24 kDa, expressed in E. coli (protein)
chain: MTMTTKRIFEHMRPNLTDSQVQALYKLMEKGADLDTIAQFAGVSPLVSTADVKQPSGFKFSQTSLKRLEGVNPKLVQVVNRALEISKEDFMVIEGVRTKESAWANWGKGRTAAQCQAAGVPTKYAQPSLAKVTWLTDPLKSKHMTGHAVDLAPIPLDWNDLKRFDLMAQAMFQASAELNIPIRWGADWDNDGVFREKGETDSPHFELAG

Assays:
Gram-negative bacteria [1] = assay: Activity comparison of P104 and LysP53 in vitro, overall; assay type: cell-based; conditions: stable phase, 37° C., 1 h
Description: (§1) A variety of strains including Acinetobacter baumannii, Pseudomonas aeruginosa, Klebsiella pneumoniae and Escherichia coli are cultured to stable phase (OD600nm between 1.2-1.4), respectively, and each precipitate is collected by centrifugation at 4° C., rinsed once with Tris-HCl buffer, and then the rinsed precipitate is dissolved in Tris-HCl buffer to obtain the bacterial solution. At the same time, mixed solutions including the same amount of the buffer and the above bacterial solution are prepared and used as the negative controls. After incubation at 37° C. for 1 h, the number (CFU) of the bacteria in the solutions are counted by plating on agar plates.

A. baumannii WHG40137 [2] = assay: Time dependence of lysin LysP53 lysing A. baumannii WHG40137 (CFU plate count); assay type: cell-based, Acinetobacter baumannii; conditions: 100 μg/mL LysP53, logarithmic phase, 37° C.
Description: Acinetobacter baumannii (A. baumannii) WHG40137 is cultured to logarithmic phase (OD600nm between 0.4-0.6), and the precipitate is collected by low-temperature centrifugation, rinsed once with Tris-hydrochloride (Tris-HCl) buffer, and then the rinsed precipitate is dissolved in the buffer to obtain an A. baumannii WHG40137 bacterial solution. The lysin LysP53 prepared in the embodiment 2 is added in and mixed with the A. baumannii WHG40137 bacterial solution to make the final concentration of the lysin LysP53 to be 100 micrograms per milliliter (μg/mL). At the same time, a mixed solution including the same amount of the buffer and the above bacterial solution is prepared and used as negative control. During incubation of the solutions at 37° C., aliquots were sampled, respectively, at different times and used to count the number (colony-forming unit abbreviated as CFU) of the bacteria in the solutions by plating on agar plates.

A. baumannii WHG40137 [3] = assay: Lytic activity of LysP53 against A. baumannii WHG40137 at different growth periods (CFU plate count); assay type: cell-based, Acinetobacter baumannii; conditions: 100 μg/mL LysP53, 37° C., 1 h; logarithmic phase (OD600 0.4-0.6) vs stable phase (OD600 1.2-1.4)
Description: A. baumannii WHG40137 is cultured to logarithmic phase (OD600nm between 0.4-0.6) or stable phase (OD600nm between 1.2-1.4) first. Then, the precipitates are collected by centrifugation at 4° C., rinsed once with Tris-HCl buffer, and dissolved in Tris-HCL buffer to obtain an A. baumannii WHG40137 bacterial solution. Finally, the lysin LysP53 prepared in the embodiment 2 is taken and mixed with the A. baumannii WHG40137 bacterial solution to make the final concentration of the lysin LysP53 to be 100 μg/mL. At the same time, a mixed solution including the same amount of the buffer and the above bacterial solution is prepared and used as the negative control. After incubation at 37° C. for 1 h, the number (CFU) of the bacteria in the solutions are counted by plating on agar plates.

A. baumannii WHG40137 [4] = assay: Effect of pH on lytic activity of LysP53 against A. baumannii WHG40137 (CFU plate count); assay type: cell-based, Acinetobacter baumannii; conditions: 100 μg/mL LysP53, logarithmic phase, 1 h
Description: A. baumannii WHG40137 is cultured to logarithmic phase (OD600nm between 0.4-0.6) first. Then, the precipitates are collected by centrifugation at 4° C., rinsed once with Tris-HCl buffer, and dissolved in Tris-HCL buffer with different pH values (pH 5-8) to obtain A. baumannii WHG40137 bacterial solutions. Finally, the lysin LysP53 prepared in the embodiment 2 is taken and mixed with the A. baumannii WHG40137 bacterial solutions to make the final concentration of the lysin LysP53 to be 100 μg/mL. At the same time, mixed solutions including the same amount of the buffer and the above bacterial solution are prepared and used as the negative controls. After incubation at 37° C. for 1 h, the number (CFU) of the bacteria in the solutions are counted by plating on agar plates.

Acinetobacter baumannii [5] = assay: Lysis spectrum of LysP53 in vitro (CFU plate count); assay type: cell-based; conditions: 100 μg/mL LysP53, stable phase, 37° C., 1 h
Description: (§2) A variety of strains including Acinetobacter baumannii, Pseudomonas aeruginosa, Klebsiella pneumoniae and Escherichia coli are cultured to stable phase (OD600nm between 1.2-1.4), respectively, and each precipitate is collected by centrifugation at 4° C., rinsed once with Tris-HCl buffer, and then the rinsed precipitate is dissolved in Tris-HCl buffer to obtain the bacterial solution. The lysin LysP53 prepared in the embodiment 2 is taken and mixed with the above bacterial solutions, respectively, to make the final concentration of the lysin LysP53 to be 100 μg/mL. At the same time, mixed solutions including the same amount of the buffer and each of the above bacterial solutions are prepared and used as negative controls. After incubation at 37° C. for 1 h, the number (CFU) of the bacteria in the solutions are counted by plating on agar plates.

Escherichia coli [6] = assay: as above; assay type: cell-based; conditions: 100 μg/mL LysP53, stable phase, 37° C., 1 h
Description: as §2

Klebsiella pneumoniae [7] = assay: as above; assay type: cell-based; conditions: 100 μg/mL LysP53, stable phase, 37° C., 1 h
Description: as §2

Pseudomonas aeruginosa [8] = assay: as above; assay type: cell-based; conditions: 100 μg/mL LysP53, stable phase, 37° C., 1 h
Description: as §2

Gram-negative bacteria [9] = assay: Lysis spectrum of LysP53 in vitro, overall; assay type: cell-based; conditions: 100 μg/mL LysP53, stable phase, 37° C., 1 h
Description: as §2

A. baumannii WHG40137 [10] = assay: Effect of EDTA concentration on lytic activity of LysP53 against A. baumannii WHG40137 (CFU plate count); assay type: cell-based, Acinetobacter baumannii; conditions: 100 μg/mL LysP53, stable phase, EDTA 0, 62.5, 125, 250, 500 μM, 37° C., 1 h
Description: A. baumannii WHG40137 is cultured to stable phase (OD600nm between 1.2-1.4), and the precipitate is collected by centrifugation at 4° C., rinsed once with a Tris-HCl buffer, and is dissolved in Tris-HCl buffer to obtain an A. baumannii WHG40137 bacterial solution. The lysin LysP53 prepared in the embodiment 2 is taken and mixed with the A. baumannii WHG40137 bacterial solution containing EDTA at different concentrations (0 μM, 62.5 μM, 125 μM, 250 μM, and 500 μM) to make the final concentration of the lysin LysP53 to be 100 μg/mL. At the same time, mixed solutions including the same amount of the Tris-HCl buffer solution and each of the above bacterial solutions are used as negative controls. After incubation at 37° C. for 1 h, the number (CFU) of the bacteria in the solutions are counted by plating on agar plates.

A. baumannii WHG40137 [11] = assay: Lytic activity of LysP53 against A. baumannii WHG40137 on burned skin surfaces of mice; assay type: in vivo, Acinetobacter baumannii; conditions: female BALB/c mice, burn site infected 24 h, 14 μg LysP53 topical vs 4 grams (g) minocycline, 4 h after treatment
Description: Female BALB/c mice aged 6-8 weeks are anesthetized by intraperitoneal injection of 40 milligrams per kilogram (mg/kg) pentobarbital (also referred to as pentobarbitone), and then shaved with an electric razor to remove 2 square centimeters (cm 2) of hair on the back. Partial burn can be achieved by exposing the naked skin to water at 65° C. for 12 s. 10 μL, of A. baumannii WHG40137 with a concentration of 10^8 CFU/mL is taken and inoculated at the burn site, and after colonization for 24 h, the mice are randomly divided into three groups. In the first group, there are 12 mice, and 14 μg of the lysin LysP53 is applied to the burn site of each mouse. In the second group, there are 12 mice, and 4 grams (g) minocycline is applied to the burn site of each mouse. In the third group, there are 9 mice, and the same amount of buffer solution is applied to the burn site of each mouse. Four hours after treatment, the mice are euthanatized and the infected skin is excised, infiltrated with 1 mL of phosphate buffered saline with Tween® 20 (PBST) and 0.1% Triton X-100 for 2 min, and homogenized with a tissue cell disruptor (NewZongKe, Wuhan, China). Finally, an aliquot of the suspension is diluted and plated to an LB plate containing 4 μg/mL of gentamicin and 2 μg/mL of meropenem, and the number of the colonies are counted after overnight culture.

Acinetobacter baumannii [12] = assay: Activity comparison of P104 and LysP53 in vitro (CFU plate count); assay type: cell-based; conditions: stable phase, 37° C., 1 h
Description: as §1

Escherichia coli [13] = assay: as above; assay type: cell-based; conditions: stable phase, 37° C., 1 h
Description: as §1

Klebsiella pneumoniae [14] = assay: as above; assay type: cell-based; conditions: stable phase, 37° C., 1 h
Description: as §1

Pseudomonas aeruginosa [15] = assay: as above; assay type: cell-based; conditions: stable phase, 37° C., 1 h
Description: as §1

Molecule	lytic activity against Gram-negative bacteria (Gram-negative bacteria [1])	lytic activity against Acinetobacter baumannii WHG40137 (A. baumannii WHG40137 [2])	concentration of Acinetobacter baumannii WHG40137 after incubation for 15 min (A. baumannii WHG40137 [2]; Tris-HCl buffer, 15 min)	concentration of Acinetobacter baumannii WHG40137 after incubation for 1 h (A. baumannii WHG40137 [2]; Tris-HCl buffer, 1 h)	lytic activity in logarithmic phase versus stable phase (A. baumannii WHG40137 [3])	lytic activity in pH range 5.0-6.5 versus pH range 7.0-8.0 (A. baumannii WHG40137 [4]; 37° C.)	concentration of the bacteria after incubation with LysP53 at pH 5.0-6.5 (A. baumannii WHG40137 [4]; pH 5.0-6.5, 37° C.)	lytic effect on a variety of Acinetobacter baumannii strains (Acinetobacter baumannii [5])	lytic effect on Escherichia coli (Escherichia coli [6])	lytic effect on Klebsiella pneumoniae (Klebsiella pneumoniae [7])	lytic effect on Pseudomonas aeruginosa (Pseudomonas aeruginosa [8])	spectrum in lysing Gram-negative bacteria (Gram-negative bacteria [9])	lytic activity with increasing EDTA concentration (A. baumannii WHG40137 [10])	lytic activity on mouse skin compared with minocycline (A. baumannii WHG40137 [11])	lytic activity against Acinetobacter baumannii, LysP53 compared with P104 (Acinetobacter baumannii [12])	activity against Escherichia coli, LysP53 compared with P104 (Escherichia coli [13])	activity against Klebsiella pneumoniae, LysP53 compared with P104 (Klebsiella pneumoniae [14])	activity against Pseudomonas aeruginosa, LysP53 compared with P104 (Pseudomonas aeruginosa [15])
P104: antibacterial peptide found in the genome of bacteriophage P53, amino acid sequence SEQ ID NO: 1, chemically synthesized (MTMTTKRIFEHMRPNLTDSQVQALYKLMEKGAD)	broad-spectrum lytic activity	–	–	–	–	–	–	–	–	–	–	–	–	–	–	–	–	–
B1	broad-spectrum lytic activity	good lytic activity	greatly reduced	about 10 CFU/mL	higher lytic activity	better lytic activity	about 10 CFU/mL	good lytic effect	good lytic effect	good lytic effect	good lytic effect	broad spectrum	gradually higher	higher lytic activity	stronger lytic activity	comparable activity	comparable activity	comparable activity
